Results as given in patent US6242195.

Tests used:
[1] = biological target: CD20 antigen (Homo sapiens (Human)) (UniProt P11836); assay: flow cytometry on WIL2-S cells, EC50 against C2B8 reference
[2] = biological target: CD20 antigen (Homo sapiens (Human)) (UniProt P11836)
C1q (human) [3] = biological target: C1q (human) (UniProt P02745)
C1q (human) [4] = biological target: C1q (human) (UniProt P02745); assay: C1q binding ELISA, antibody coated
C1q (human) [5] = biological target: C1q (human) (UniProt P02745); assay: C1q binding ELISA, antibody coated, up to 100 µg/ml
[6] = biological target: FcγRI α subunit-GST fusion (Homo sapiens (Human)) (UniProt P12314); assay: ELISA, monomeric IgG on coated FcγRI α subunit-GST
[7] = biological target: FcγRIIa α subunit ECD-6-His-GST fusion protein (Homo sapiens (Human)) (UniProt P12318); assay: ELISA, E27:chimeric IgE:VEGF complex on coated receptor
[8] = biological target: FcγRIIIa α subunit ECD-6-His-GST fusion protein (Homo sapiens (Human)) (UniProt P08637); assay: as above
[9] = biological target: FcγRIIb α subunit ECD-6-His-GST fusion protein (Homo sapiens (Human)) (UniProt P31994); assay: as above

Sequence of FcγRIIIa α subunit ECD-6-His-GST fusion protein (Homo sapiens (Human)) (P08637 17-208): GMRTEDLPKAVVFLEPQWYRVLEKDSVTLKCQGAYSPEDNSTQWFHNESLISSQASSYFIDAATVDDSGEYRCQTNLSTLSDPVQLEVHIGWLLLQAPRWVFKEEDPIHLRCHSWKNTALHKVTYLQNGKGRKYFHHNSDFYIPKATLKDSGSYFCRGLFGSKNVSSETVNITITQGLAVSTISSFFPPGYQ
Sequence of FcγRI α subunit-GST fusion (Homo sapiens (Human)) (P12314 16-292): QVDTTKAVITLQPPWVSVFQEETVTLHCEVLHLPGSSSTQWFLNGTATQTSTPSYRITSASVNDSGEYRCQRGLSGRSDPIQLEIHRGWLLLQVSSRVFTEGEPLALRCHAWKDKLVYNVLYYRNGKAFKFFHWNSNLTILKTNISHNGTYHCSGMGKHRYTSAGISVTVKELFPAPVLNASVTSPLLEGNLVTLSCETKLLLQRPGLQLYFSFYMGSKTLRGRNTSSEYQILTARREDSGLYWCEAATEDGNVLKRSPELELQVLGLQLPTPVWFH

| Substance | CD20 binding, percentage of the wild type (% of wild type) [1] | binding, percentage of the wild type (% of wild type) [6] | binding, percentage of the wild type (% of wild type) [7] | binding, percentage of the wild type (% of wild type) [8] | binding, percentage of the wild type (% of wild type) [9] | further results |
| --- | --- | --- | --- | --- | --- | --- |
| C2B8 mutant E318A (antibody) | 89 | – | – | – | – | CDC, percentage of the wild type (% of wild type) [2]: 108; CDC, percentage of the wild type (% of wild type) (C1q (human) [3]): 108; decrease in binding to C1q against wild type C2B8 (C1q (human) [4]): 30% |
| C2B8 mutant K320A (antibody) | 102 | – | – | – | – | CDC, percentage of the wild type (% of wild type) [2]: 108; CDC, percentage of the wild type (% of wild type) (C1q (human) [3]): 108 |
| C2B8 mutant P329A (antibody) | 112 | – | – | – | – | – |
| C2B8 mutant P331A (antibody) | 103 | – | – | – | – | fold lower binding to C1q than wild type C2B8 (C1q (human) [5]): 60 fold lower |
| E27 anti-IgE antibody, Fc mutant E318A | – | 93 | 113 | 104 | 106 | – |
| E27 anti-IgE antibody, Fc mutant K320A | – | 102 | – | 72 | 83 | – |
| E27 anti-IgE antibody, Fc mutant K322A | – | – | 109 | – | 101 | – |
| E27 anti-IgE antibody, Fc mutant P329A | – | 104 | – | 85 | – | – |
| E27 anti-IgE antibody, Fc mutant P331A | – | 74 | 86 | 73 | 58 | – |
